The values that follow come from doi:10.1101/2022.09.21.508836 (bioRxiv, 2022).

This assay has as its target FIP200 (full length) (human, UniProt Q8TDY2 1-1594). In words: pull-down.

Sequence of FIP200 (full length) (Q8TDY2 whole entry): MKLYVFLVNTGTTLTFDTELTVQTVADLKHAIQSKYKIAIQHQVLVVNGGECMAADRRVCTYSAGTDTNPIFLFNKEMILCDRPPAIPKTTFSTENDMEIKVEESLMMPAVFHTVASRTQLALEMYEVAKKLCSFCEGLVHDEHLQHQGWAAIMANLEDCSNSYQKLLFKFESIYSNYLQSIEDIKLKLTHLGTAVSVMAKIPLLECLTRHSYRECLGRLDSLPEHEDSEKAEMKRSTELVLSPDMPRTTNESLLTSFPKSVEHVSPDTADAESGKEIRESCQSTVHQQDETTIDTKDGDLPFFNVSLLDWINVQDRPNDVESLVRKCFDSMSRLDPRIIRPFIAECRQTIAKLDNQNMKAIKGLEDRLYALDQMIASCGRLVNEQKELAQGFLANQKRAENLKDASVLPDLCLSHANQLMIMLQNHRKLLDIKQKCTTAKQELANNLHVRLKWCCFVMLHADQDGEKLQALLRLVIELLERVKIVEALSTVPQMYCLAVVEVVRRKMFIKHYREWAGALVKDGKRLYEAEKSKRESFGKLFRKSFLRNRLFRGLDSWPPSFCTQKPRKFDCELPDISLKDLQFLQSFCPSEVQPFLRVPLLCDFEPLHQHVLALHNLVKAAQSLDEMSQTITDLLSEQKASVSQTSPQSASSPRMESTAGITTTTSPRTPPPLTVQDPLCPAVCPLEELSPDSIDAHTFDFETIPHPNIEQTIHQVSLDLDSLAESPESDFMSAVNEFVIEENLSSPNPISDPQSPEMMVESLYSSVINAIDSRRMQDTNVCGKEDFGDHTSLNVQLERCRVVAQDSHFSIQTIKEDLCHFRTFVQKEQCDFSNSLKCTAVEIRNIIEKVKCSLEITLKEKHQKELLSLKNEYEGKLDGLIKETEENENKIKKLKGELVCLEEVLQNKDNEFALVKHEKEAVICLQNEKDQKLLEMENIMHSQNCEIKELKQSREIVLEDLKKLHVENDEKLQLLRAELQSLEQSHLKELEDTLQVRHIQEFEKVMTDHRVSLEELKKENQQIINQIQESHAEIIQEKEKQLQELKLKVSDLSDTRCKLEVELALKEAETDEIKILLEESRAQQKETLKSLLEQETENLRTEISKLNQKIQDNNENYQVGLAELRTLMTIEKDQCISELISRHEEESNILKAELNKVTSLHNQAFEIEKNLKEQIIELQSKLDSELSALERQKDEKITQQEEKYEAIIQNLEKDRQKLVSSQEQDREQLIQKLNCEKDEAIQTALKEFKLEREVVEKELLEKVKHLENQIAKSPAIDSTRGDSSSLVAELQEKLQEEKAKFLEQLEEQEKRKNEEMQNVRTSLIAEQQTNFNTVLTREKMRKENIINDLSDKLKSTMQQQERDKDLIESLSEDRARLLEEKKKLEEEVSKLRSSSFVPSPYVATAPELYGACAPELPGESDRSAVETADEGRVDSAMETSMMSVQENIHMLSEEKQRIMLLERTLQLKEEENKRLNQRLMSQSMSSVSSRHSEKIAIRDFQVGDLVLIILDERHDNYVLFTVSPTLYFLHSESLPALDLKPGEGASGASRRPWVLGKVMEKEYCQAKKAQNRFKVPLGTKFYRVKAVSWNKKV

B1: ULK1 (full length) (enzyme)
chain: MEPGRGGTETVGKFEFSRKDLIGHGAFAVVFKGRHREKHDLEVAVKCINKKNLAKSQTLLGKEIKILKELKHENIVALYDFQEMANSVYLVMEYCNGGDLADYLHAMRTLSEDTIRLFLQQIAGAMRLLHSKGIIHRDLKPQNILLSNPAGRRANPNSIRVKIADFGFARYLQSNMMAATLCGSPMYMAPEVIMSQHYDGKADLWSIGTIVYQCLTGKAPFQASSPQDLRLFYEKNKTLVPTIPRETSAPLRQLLLALLQRNHKDRMDFDEFFHHPFLDASPSVRKSPPVPVPSYPSSGSGSSSSSSSTSHLASPPSLGEMQQLQKTLASPADTAGFLHSSRDSGGSKDSSCDTDDFVMVPAQFPGDLVAEAPSAKPPPDSLMCSGSSLVASAGLESHGRTPSPSPPCSSSPSPSGRAGPFSSSRCGASVPIPVPTQVQNYQRIERNLQSPTQFQTPRSSAIRRSGSTSPLGFARASPSPPAHAEHGGVLARKMSLGGGRPYTPSPQVGTIPERPGWSGTPSPQGAEMRGGRSPRPGSSAPEHSPRTSGLGCRLHSAPNLSDLHVVRPKLPKPPTDPLGAVFSPPQASPPQPSHGLQSCRNLRGSPKLPDFLQRNPLPPILGSPTKAVPSFDFPKTPSSQNLLALLARQGVVMTPPRNRTLPDLSEVGPFHGQPLGPGLRPGEDPKGPFGRSFSTSRLTDLLLKAAFGTQAPDPGSTESLQEKPMEIAPSAGFGGSLHPGARAGGTSSPSPVVFTVGSPPSGSTPPQGPRTRMFSAGPTGSASSSARHLVPGPCSEAPAPELPAPGHGCSFADPITANLEGAVTFEAPDLPEETLMEQEHTEILRGLRFTLLFVQHVLEIAALKGSASEAAGGPEYQLQESVVADQISLLSREWGFAEQLVLYLKVAELLSSGLQSAIDQIRAGKLCLSSTVKQVVRRLNELYKASVVSCQGLSLRLQRFFLDKQRLLDRIHSITAERLIFSHAVQMVQSAALDEMFQHREGCVPRYHKALLLLEGLQHMLSDQADIENVTKCKLCIERRLSALLTGICA
Consider B1, for which the binding result is given as “binds”.
